Substitutions are numbered along the chain they refer to. Values belong to the binder of their own block, whether it stands above or below them.
What was measured:
canine PD-1 [1] = biological target: T1, canine PD-1 (canine); test: SPR (Biacore T200), canine PD-1 amine-coupled, antibody as analyte, 1:1 fit; off-rate below the detection limit
T1 construct: also called canine PD-1 antigen; cPD-1
T1 chain: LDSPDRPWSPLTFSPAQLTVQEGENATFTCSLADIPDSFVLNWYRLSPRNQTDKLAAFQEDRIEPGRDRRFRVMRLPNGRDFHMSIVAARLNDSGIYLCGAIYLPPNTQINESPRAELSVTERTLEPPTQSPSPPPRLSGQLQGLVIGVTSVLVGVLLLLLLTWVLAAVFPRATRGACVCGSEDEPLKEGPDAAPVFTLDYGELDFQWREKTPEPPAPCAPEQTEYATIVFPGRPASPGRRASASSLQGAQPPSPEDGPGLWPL

canine PD-1 [2] = biological target: T1, canine PD-1; test: SPR (Biacore T200), canine PD-1 amine-coupled, antibody as analyte, 1:1 fit
[3] = biological target: T2, HIS-tagged canine PD-1 ECD protein (canine); test: ELISA on the extracellular domain of canine PD-1
T2 construct: also called PD-1 HIS; canine PD-1 ECD-HIS tagged protein; not shown: HIS tag
T2 chain: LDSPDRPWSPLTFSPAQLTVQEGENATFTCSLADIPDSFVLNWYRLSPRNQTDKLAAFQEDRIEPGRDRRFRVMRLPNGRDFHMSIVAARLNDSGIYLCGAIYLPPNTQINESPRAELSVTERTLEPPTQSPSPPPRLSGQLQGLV

[4] = biological target: T3, recombinant human CD64 protein (R&D systems) (human, UniProt P12314 16-288); test: ELISA: antibody titrated on coated PD-1 HIS, then recombinant human CD64 at 1 ug/mL, biotinylated anti-CD64 and streptavidin-HRP
T3 construct: Bought protein; also called FcγRI; FcRγI
T3 sequence (P12314 16-288 limits assumed): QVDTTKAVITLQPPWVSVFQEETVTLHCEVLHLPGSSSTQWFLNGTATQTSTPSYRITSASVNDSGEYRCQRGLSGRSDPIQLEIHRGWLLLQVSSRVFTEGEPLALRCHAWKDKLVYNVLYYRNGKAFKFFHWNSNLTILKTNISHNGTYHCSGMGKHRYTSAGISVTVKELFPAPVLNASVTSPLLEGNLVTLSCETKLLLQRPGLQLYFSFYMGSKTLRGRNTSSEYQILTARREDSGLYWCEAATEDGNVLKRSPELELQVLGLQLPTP
Experimental: (§1) Binding to FcRγI is a measure of the ability of an antibody to mediate ADCC. In order to assess this property for the caninized antibodies an assay to measure binding of caninized antibodies to FcγRI was conducted as follows: Coat 96-well plates with 100 μl per well of 2.5 μg/mL PD-1 HIS. Incubate at 2-7° C. overnight. Equilibrate the plates to room temp for 15 minutes. Wash plates 3× with phosphate buffered saline containing 0.05% Tween® 20 (PBST) and then block the wells using 200 μL/well of 5% NFDM (Non Fat Dried Milk). Incubate for 60 minutes at 36-38° C. Wash 3× with PBST. Make 2-fold dilution of antibodies starting at 1 μg/mL in 5% NFDM. Add 100 μL/well of diluted antibodies. Incubate for 60 minutes at 36-38° C. Wash 6× with PBST. Add 100 μL/well of recombinant human CD64 protein (R&D systems) diluted to 1 μg/mL. Incubate for 60 minutes at 36-38° C. Wash 6× with PBST. Add 100 μL/well biotinylated-anti-CD64 antibody (R&D systems) diluted to 1:3000. Incubate for 60 minutes at 36-38° C. Wash 6× with PBST. Add 100 μL/well Streptavidin-HRP antibody (R&D systems) diluted to 1:7500. Incubate for 60 minutes at 36-38° C. Wash 6× with PBST. Add 100 μL/well TMB substrate. Incubate for 10 minutes at 15-30° C. Read plates using ELISA plate reader at 450-540 nm.

[5] = biological target: T3, recombinant human CD64 protein (R&D …); test: ELISA: antibody captured on PD-1 HIS, recombinant human CD64 added
Experimental: as §1

B1: Murine 2H9 (antibody, V domains shown)
VH: EVQLQQSVAELVRPGASVKLSCTASGFNIKNTYMHWIKQRPEQGLEWIGRIAPANVDTKYAPKFQGKATITADTSSNTAYMQLSTLTSEDTAIYYCVLIYYDYDGDIDVWGTGTTVTVSS
VL: DIQMNQSPSSLSASLGDTITITCHASQNINVWLSWYQQRPGNIPKLLIYKASHLHTGVPSRFSGSGSGTGFTLTISSLQPEDIATYYCQQGQSWPLTFGAGTKLELK
Kd (canine PD-1 [1]): ≤ 0.2 nM | koff (canine PD-1 [1]): ≤ 5e-06 s⁻¹ | kon (canine PD-1 [2]): 23000 M⁻¹ s⁻¹

B2: 3B6 VH3 IgGB / VL3 (antibody, V domains shown)
VH: EVQLVQSGGDLVKPGGSVRLSCVASGYTFTTYGMSWVRQAPGKGLQWMGWINIYSGIPTYADDFKGRFTFSLDTAKNTAYLQLNSLRAEDTAVYYCTRFDGPDYWGQGTLVTVSS
VL: DIVMTQTPLSLSVSPGEPASMSCKSSQSLLNSVNQKNYLAWYRQKPGQSPQVLVYFASARVSGVPDRFIGSGSGTDFTLRISRVEADDLGVYYCQQYFSTPLTFGQGTKLELKR
notes: copies: 2 + 2
EC50 (read off the curve) [3]: ~0.1 nM

B3: can2H9 VH4/VL3 IgGB (antibody)
heavy: EVQLVQSGGDLVKPGGSVRLSCVASGFNIKNTYMHWVRQAPGKGLQWIGRIAPANVDTKYAPKFQGKATISADTAKNTAYMQLNSLRAEDTAVYYCVLIYYDYDGDIDVWGQGTLVTVSSASTTAPSVFPLAPSCGSTSGSTVALACLVSGYFPEPVTVSWNSGSLTSGVHTFPSVLQSSGLYSLSSMVTVPSSRWPSETFTCNVAHPASKTKVDKPVPKRENGRVPRPPDCPKCPAPEMLGGPSVFIFPPKPKDTLLIARTPEVTCVVVDLDPEDPEVQISWFVDGKQMQTAKTQPREEQFNGTYRVVSVLPIGHQDWLKGKQFTCKVNNKALPSPIERTISKARGQAHQPSVYVLPPSREELSKNTVSLTCLIKDFFPPDIDVEWQSNGQQEPESKYRTTPPQLDEDGSYFLYSKLSVDKSRWQRGDTFICAVMHEALHNHYTQESLSHSPGK
light: DIVMTQTPLSLSVSLGEPASISCHASQNINVWLSWYRQKPGQIPQLLIYKASHLHTGVPDRFSGSGSGTDFTLRISRVEADDAGVYYCQQGQSWPLTFGQGTKVEIKRNDAQPAVYLFQPSPDQLHTGSASVVCLLNSFYPKDINVKWKVDGVIQDTGIQESVTEQDSKDSTYSLSSTLTMSSTEYLSHELYSCEITHKSLPSTLIKSFQRSECQRVD
notes: also called 2H9 VH4 IgGB/VL3; caninized 2H9 with un-modified IgGB Fc
binding result [4]: binds

B4: can2H9 ADCC (1062) VH4/VL3 (antibody)
heavy: B3 heavy with D271A, N303A
light: B3 light
notes: also called YZZ1062
binding result [5]: no binding | EC50 (read off the curve) [3]: ~0.3 nM

B5: can2H9 IgGD VH4/VL3 (antibody)
heavy chain: EVQLVQSGGDLVKPGGSVRLSCVASGFNIKNTYMHWVRQAPGKGLQWIGRIAPANVDTKYAPKFQGKATISADTAKNTAYMQLNSLRAEDTAVYYCVLIYYDYDGDIDVWGQGTLVTVSSASTTAPSVFPLAPSCGSTSGSTVALACLVSGYFPEPVTVSWNSGSLTSGVHTFPSVLQSSGLYSLSSTVTVPSSRWPSETFTCNVVHPASNTKVDKPVPKESTCKCISPCPVPESLGGPSVFIFPPKPKDILRITRTPEITCVVLDLGREDPEVQISWFVDGKEVHTAKTQPREQQFNSTYRVVSVLPIEHQDWLTGKEFKCRVNHIGLPSPIERTISKARGQAHQPSVYVLPPSPKELSSSDTVTLTCLIKDFFPPEIDVEWQSNGQPEPESKYHTTAPQLDEDGSYFLYSKLSVDKSRWQQGDTFTCAVMHEALQNHYTDLSLSHSPGK
light chain: B3 light
notes: also called can2H9 VH4 IgGD/VL3
binding result [4]: no binding (tested: log(nM) about 0.83 (1 ug/mL))

B6: can2H9 ADCC mut-2 VH4/VL3 (antibody)
heavy: B3 heavy with N303A
light: B3 light
notes: also called can2H9 VH4 IgGB ADCC (mut-2)/VL3; YZZ1058/Mut-2
binding result [5]: binds

B7: can2H9 ADCC (1061) VH4/VL3 (antibody)
heavy: B3 heavy with P335A
light: B3 light
notes: also called can2H9 VH4 IgGB ADCC (1061)/VL3; YZZ1061
binding result [4]: binds

B12: Murine 3B6 (antibody, V domains shown)
VH: QIQLVQSGPELKKPGETVKISCKASGYTFTTYGMSWVKQAPGKGLKWMGWINIYSGIPTYADDFKGRFAFSLETSASTAYLQIDNLKNEDTATYFCARFDGPDYWGQGTTLTVSS
VL: DIVMTQSPSSLAVSVGRKVTMSCKSSQSLLNSVNQKNYLAWYQQKPGQSPKVLVYFASARVSGVPDRFIGSGSGTDFTLAISSVQAEDLTTYFCQQYFSTPLTFGAGTKLELK
Kd (canine PD-1 [2]): 2 nM | koff (canine PD-1 [2]): 3.4e-05 s⁻¹ | kon (canine PD-1 [2]): 18000 M⁻¹ s⁻¹

Further lines, results first:

binding result [5]: binds
B8: can2H9 ADCC mut-1 VH4/VL3 (antibody)
heavy: B3 heavy with D271A
light: B3 light
notes: also called can2H9VH4 IgGB ADCC (mut-1)/VL3; YZZ1057/Mut-1

binding result [4]: binds
B9: can2H9 ADCC(1060) VH4/VL3 (antibody)
heavy: B3 heavy with A333G
light: B3 light
notes: also called YZZ1060

binding result [4]: binds
B10: can2H9 ADCC(1059) VH4/VL3 (antibody)
heavy: B3 heavy with P244A
light: B3 light
notes: also called can2H9 VH4 IgGB ADCC(1059)/VL3; YZZ1059

binding result [5]: no binding
B11: can 2H9 IgGB ADCC (1068) VH4/VL3 (antibody)
heavy: B3 heavy with P244A, D271A, N303A, A333G, P335A
light: B3 light
notes: also called can2H9 VH4 IgGB ADCC (1068)/VL3; YZZ1068

From patent US20190002562A1 (INTERVET, published 2019)
